# Reference: patent US20060177441A1 (Genentech, published 2006)
# T1: mpl-Ig (UniProt P40238 26-491)
# T1 construct: Used as conditioned medium of mpl-Ig-transfected 293 cells, captured on anti-human IgG Fc plates; also called Mpl (Mpl/TPO ELISA); not shown: Ig part, captured by rabbit anti-human IgG Fc
# T1 sequence (looked up): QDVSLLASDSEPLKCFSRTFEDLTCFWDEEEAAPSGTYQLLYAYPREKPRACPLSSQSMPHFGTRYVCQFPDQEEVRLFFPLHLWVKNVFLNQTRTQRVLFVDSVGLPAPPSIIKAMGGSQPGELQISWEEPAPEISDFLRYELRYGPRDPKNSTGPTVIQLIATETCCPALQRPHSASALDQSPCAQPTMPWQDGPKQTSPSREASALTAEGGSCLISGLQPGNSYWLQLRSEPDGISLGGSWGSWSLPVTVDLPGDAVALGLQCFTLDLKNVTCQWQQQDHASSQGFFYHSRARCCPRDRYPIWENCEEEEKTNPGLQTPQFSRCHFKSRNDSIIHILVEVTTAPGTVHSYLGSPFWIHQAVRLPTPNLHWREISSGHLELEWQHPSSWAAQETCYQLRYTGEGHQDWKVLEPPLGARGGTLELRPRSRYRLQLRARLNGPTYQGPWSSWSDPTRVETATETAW
# T2: c-mpl (thrombopoietin receptor) on HU-03 cells, human platelets or human cord blood cells (human, UniProt P40238 26-635)
# T2 construct: whole, on cells; also called mpl receptor; TPO receptor
# T2 sequence (looked up): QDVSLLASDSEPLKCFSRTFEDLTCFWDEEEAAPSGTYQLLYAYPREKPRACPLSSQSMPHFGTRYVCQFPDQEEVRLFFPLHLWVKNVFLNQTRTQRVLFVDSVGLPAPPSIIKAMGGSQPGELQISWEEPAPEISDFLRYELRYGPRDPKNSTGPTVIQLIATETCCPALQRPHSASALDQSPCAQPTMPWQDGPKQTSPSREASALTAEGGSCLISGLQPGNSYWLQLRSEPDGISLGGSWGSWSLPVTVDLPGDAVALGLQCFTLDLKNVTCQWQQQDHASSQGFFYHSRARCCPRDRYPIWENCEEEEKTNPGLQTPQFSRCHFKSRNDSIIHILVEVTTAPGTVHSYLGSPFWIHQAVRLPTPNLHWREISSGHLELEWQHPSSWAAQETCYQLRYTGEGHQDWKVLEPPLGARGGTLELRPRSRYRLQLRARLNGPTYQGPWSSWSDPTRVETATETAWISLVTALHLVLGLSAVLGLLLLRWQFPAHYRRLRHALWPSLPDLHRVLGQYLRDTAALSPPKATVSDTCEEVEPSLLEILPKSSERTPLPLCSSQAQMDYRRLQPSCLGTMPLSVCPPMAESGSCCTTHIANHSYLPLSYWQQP
# Experiments:
# [1] = molecular target: T1, mpl-Ig; experiment: Mpl/TPO ELISA: inhibition of biotinylated TPO binding to captured mpl-Ig
# [2] = molecular target: T2, c-mpl (thrombopoietin receptor) on …; experiment: Hu3 Binding: competition with 125I-TPO (100 pM) on HU-03 cells
# Protocol: HU-03 cells were agitated during the incubation period to keep them in suspension. The reaction mixture was overlayed on 1 ml 20% sucrose-HBSSB and microcentrifuged at 13,500 rpm for five minutes. The supernatants were aspirated, tube bottoms containing the cell pellets were cut off, and cell- or platelet-associated radioactivity was measured with an Iso Data Model 120 gamma counter.
# [3] = molecular target: T2, c-mpl (thrombopoietin receptor) on …; experiment: Platelets: competition with 125I-TPO (100 pM) on human platelets
# [4] = molecular target: c-mpl (thrombopoietin receptor) on HU-03 cells, human platelets or human cord blood cells (human) (UniProt P40238); experiment: as above
# [5] = molecular target: mpl-Rse.gD chimeric receptor (human) (UniProt P40238); experiment: cell-based or functional assay
# [6] = molecular target: c-mpl (thrombopoietin receptor) on HU-03 cells, human platelets or human cord blood cells (human) (UniProt P40238); experiment: cell-based or functional assay
# [7] = molecular target: c-mpl (thrombopoietin receptor) on HU-03 cells, human platelets or human cord blood cells (human) (UniProt P40238); experiment: Hu3 Binding: competition with 125I-TPO (100 pM) on HU-03 cells
IC50 [1] [nM],IC50 [2] [nM],IC50 [3] [nM],IC50 [4] [nM],KIRA (ED50) [5] [pM],Hu3 Proliferation (ED50) [6] [pM],IC50 [7] [nM],Binder
0.45,50,500,–,–,–,–,"12E10 IgG (antibody, V domains shown, Full length antibody with human IgG1 CH1, CH2 and CH3 domains, expressed in 293 or CHO cells; also called full length human antibody derivative of 12E10) VH: QVQLQQSGPGLVKPSETLSLTCTVSGDSISSYYWSWIRQPPGKGLEWIGYIYYSGSTNYNPSLKSRVTISVDTSKSQFSLKLSSVTAADTAVYYCARGRYFDVWGRGTMVTVSS VL: SYVLTQPPSVSGSPGQSITISCTGTSSDVGGYNYVSWYQQHPGKAPKLMIYEGSKRPSGVSNRFSGSKSGNTASLTISGLQAEDEADYYCSSYTTRSTRVFGGGTKLTVL"
640,10,500,–,–,–,–,"12E10 Fab′2 (other, F(ab′)2 with leucine zipper, expressed in E. coli from pXCA740; copies: 2 + 2) VH: QVQLQQSGPGLVKPSETLSLTCTVSGDSISSYYWSWIRQPPGKGLEWIGYIYYSGSTNYNPSLKSRVTISVDTSKSQFSLKLSSVTAADTAVYYCARGRYFDVWGRGTMVTVSS VL: SYVLTQPPSVSGSPGQSITISCTGTSSDVGGYNYVSWYQQHPGKAPKLMIYEGSKRPSGVSNRFSGSKSGNTASLTISGLQAEDEADYYCSSYTTRSTRVFGGGTKLTVL"

# More lines, now with the values behind:
Binder,IC50 [1] [nM],IC50 [2] [nM],IC50 [3] [nM],IC50 [4] [nM],KIRA (ED50) [5] [pM],Hu3 Proliferation (ED50) [6] [pM],IC50 [7] [nM]
"12E10 Fab (Fab, V domains shown, Monovalent Fab′ from E. coli: human IgG1 CH1 ending thr-ala-ala-pro, human kappa1 CL (pXCA730) or human lambda CL (pXCA970)) VH: QVQLQQSGPGLVKPSETLSLTCTVSGDSISSYYWSWIRQPPGKGLEWIGYIYYSGSTNYNPSLKSRVTISVDTSKSQFSLKLSSVTAADTAVYYCARGRYFDVWGRGTMVTVSS VL: SYVLTQPPSVSGSPGQSITISCTGTSSDVGGYNYVSWYQQHPGKAPKLMIYEGSKRPSGVSNRFSGSKSGNTASLTISGLQAEDEADYYCSSYTTRSTRVFGGGTKLTVL",180,500,–,–,–,–,–
"12B5 IgG (antibody, from another filing) scFv: QVQLVQSGGGLVRPGGSLSLSCAVSGITLRTYGMHWVRQAPGKGLEWVAGISFDGRSEYYADSVQGRFTISRDSSKNTLYLQMNSLRAEDTAVYYCARGAHYGFDIWGQGTMVTVSSGGGGTGGGGSGGGGSDIQMTQSPSTLSASIGDRVTITCRASEGIYHWLAWYQQKPGKAPKLLIYKASSLASGAPSRFSGSGSGTDFTLTISSLQPDDFATYYCQQYSNYPLTFGGGTKLEIK",0.152,–,–,300,400,30,10
